Laboratory results from patent EP4792830A2 (Pfizer Inc., dated 2026).
Positions count from the first letter of the chain named. Like-named read-outs stand apart in the source and are kept apart here.

Key:
[1] = target: T1, humTFPI K1K2 (human); experiment: SPR, antibody ligand, TFPI analyte
T1 construct: Biotinylated on the AviTag for ELISA; also called Human TFPI alpha K1K2; humTFPI K1K2-aviHis10

[2] = target: T2, rabTFPI K1K2 (rabbit, limits assumed); experiment: SPR (summary table)
T2 construct: also called Rabbit TFPI K1K2
T2 chain: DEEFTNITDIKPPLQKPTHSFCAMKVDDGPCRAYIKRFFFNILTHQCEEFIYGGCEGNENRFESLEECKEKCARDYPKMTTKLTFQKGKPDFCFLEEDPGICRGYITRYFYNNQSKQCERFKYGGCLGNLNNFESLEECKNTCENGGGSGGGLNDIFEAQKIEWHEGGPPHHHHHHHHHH

[3] = target: T2, rabTFPI K1K2; experiment: SPR, antibody ligand, TFPI analyte
[4] = target: T2, rabTFPI K1K2; experiment: SPR, antibody ligand, TFPI analyte
[5] = target: T2, rabTFPI K1K2; experiment: ELISA, TFPI on streptavidin plate
[6] = target: T3, cynTFPI K1K2 (cynomolgus monkey); experiment: SPR, antibody ligand, TFPI analyte
T3 construct: also called Cynomolgus Monkey TFPI K1K2; cyno TFPI K1K2

[7] = target: T1, humTFPI K1K2; experiment: SPR, antibody ligand, TFPI analyte; remark: listed apart in the source
[8] = target: T2, rabTFPI K1K2; experiment: ELISA, TFPI on streptavidin plate
[9] = target: T2, rabTFPI K1K2; experiment: SPR, antibody ligand, TFPI analyte
[10] = target: T2, rabTFPI K1K2; experiment: ELISA, TFPI on streptavidin plate

B1: TFPI-24 (antibody, human IgG1, lambda, V domains shown)
VH: EVQLVESGGGSVQPGRSLRLSCAVSGLTIDNYAMQWVRQRPGKGLEWVSGISGNSRSIGYADSVKGRLTISRDNAKNSLYLQIDSLRADDTALYYCAIFLHESDYWGQGTLVTVSS
VL: QSVLTQPPSVSGTPGQRVTISCSGSTSNIGTMYVHWYQHVPGTAPKLLIYRNNHRPSGVPDRFSGSKSGTSGSLAISGLRSEDEADYYCLAWDDTLRAYVFGTGTKVTVLG
notes: Phage-derived, human IgG1-3M; also called mAb-TFPI-24; clone 24
B1 gave a Kd [1] of 3.68 nM, a koff [1] of 0.00971 s⁻¹ and a kon [1] of 918000 M⁻¹ s⁻¹.

B2: TFPI-118 (antibody, human IgG1, lambda, V domains shown)
VH: B1 VH with S11L, R40A, L68F, I83M, D84N, D89E
VL: B1 VL with V10A, H39Q, V40L, G72A
notes: Germlined variant of TFPI-24: VL of TFPI-113 paired with VH of TFPI-108
Binder B2 has a Kd [2] of 5.79 nM and a Kd [3] of 5.79 nM.

B3: 4D8.b1 (antibody, mouse IgG1, kappa)
heavy: EVLLQQSGPELVKPGASVKIPCKASGYTFTDYNLDWVKQSHGKSLEWIGDINPINGATLYNQKFKGKATLTVDQSSSTAYMELRSLTSEDTAVYYCSIYYGDYDAMDYWGQGASVTVSSAKTTPPSVYPLAPGSAAQTNSMVTLGCLVKGYFPEPVTVTWNSGSLSSGVHTFPAVLQSDLYTLSSSVTVPSSTWPSETVTCNVAHPASSTKVDKKIVPRDCGCKPCICTVPEVSSVFIFPPKPKDVLTITLTPKVTCVVVDISKDDPEVQFSWFVDDVEVHTAQTQPREEQFNSTFRSVSELPIMHQDWLNGKEFKCRVNSAAFPAPIEKTISKTKGRPKAPQVYTIPPPKEQMAKDKVSLTCMITDFFPEDITVEWQWNGQPAENYKNTQPIMDTDGSYFVYSKLNVQKSNWEAGNTFTCSVLHEGLHNHHTEKSLSHSPGK
light: DIVMTQSHKFMSTSVGDRVSITCKASQDVHTAVAWYQQKPGQSPRLLIYWASTRHTGVPDRFTGCGSGTDYTLTISSVQAEDLALYYCQQHYTTPYTFGGGTKLEMKADAAPTVSIFPPSSEQLTSGGASVVCFLNNFYPKDINVKWKIDGSERQNGVLNSWTDQDSKDSTYSMSSTLTLTKDEYERHNSYTCEATHKTSTSPIVKSFNRNEC
notes: also called mouse 4d8.b1; TFPI 4D8
For B3, the Kd [4] was 0.63 nM, the koff [4] was 0.00126 s⁻¹ and the kon [4] was 2.01e+06 M⁻¹ s⁻¹. For the same binder, the EC50 [5] was 0.0976 nM.

B4: 2A8 (antibody, human IgG1, lambda, V domains shown)
VH: QVQLVESGGGLVQPGGSLRLSCAASGFTFRSYGMSWVRQAPGKGLEWVSSIRGSSSSTYYADSVKGRFTISRDNSKNTLYLQMNSLRAEDTAVYYCARKYRYWFDYWGQGTLVTVSS
VL: DIELTQPPSVSVAPGQTARISCSGDNLRNYYAHWYQQKPGQAPVVVIYYDNNRPSGIPERFSGSNSGNTATLTISGTQAEDEADYYCQSWDDGVPVFGGGTKLTVLG
B4 gave a koff [6] of 0.0306 s⁻¹, a Kd [3] of 1.69 nM and a koff [3] of 0.00123 s⁻¹. The kon [3] was 730000 M⁻¹ s⁻¹.

B5: 2A8-200 (antibody, human IgG1, lambda, V domains shown)
VH: B4 VH with S35D, S55R, K99L
VL: B4 VL with Y48F, N51V, D91W
notes: also called Anti-TFPI-2A8-200
With B5 the Kd [2] was 0.145 nM, the Kd [3] was 0.145 nM and the koff [3] was 0.000277 s⁻¹. It also gave a kon [3] of 1.92e+06 M⁻¹ s⁻¹ and a koff [7] of 0.00381 s⁻¹.

B6: TFPI-106 (antibody, human IgG1, lambda)
heavy: not shown
light: QSVLTQPPSVSGAPGQRVTISCTGSSSNIGAGYDVHWYQQLPGTAPKLLIYGNSNRPSGVPDRFSGSKSGTSASLAITGLQAEDEADYYCQSYDSSLSGSGVFGGGTKLTVLGQPKAAPSVTLFPPSSEELQANKATLVCLISDFYPGAVTVAWKADSSPVKAGVETTTPSKQSNNKYAASSYLSLTPEQWKSHRSYSCQVTHEGSTVEKTVAPTECS
notes: IgG1-3M
B6 gave a Kd [2] of 4.25 nM and a Kd [3] of 4.25 nM.

B7: 6B7.c5 (antibody, human IgG1, kappa, V domains shown)
VH: EVLLQQSGPELVKPGSSVKIPCKASGYTFTDYTMDWVKQSHGKSLEWIGDINPSNGGSIYNRKFKGKATLTVDKSSSTAYMELRSLTSEDTAVYYCARMHYNYDGFPYWGQGTLVTVSA
VL: DIVMTQSHKFMSTSVGDRVSITCKASQDVITAVAWYQQKPGQSPKLLIYWASTRHTGVPVRFTGSGSGTDYTLTIISVQAEDLALYYCQQHYSTPYTFGGGTKLEIKA
notes: Mouse hybridoma antibody
B7 was tested, and the Kd [4] was 4.95 nM, the koff [4] was 0.00564 s⁻¹ and the kon [4] was 1.14e+06 M⁻¹ s⁻¹. The EC50 [5] was 0.129 nM.

B8: 4D8-Vk1.0 x VH1.0 (antibody, human IgG1, kappa, V domains shown)
VH: EVQLVESGGGLVQPGGSLRLSCAASGYTFTDYNLDWVRQAPGKGLEWVADINPINGATLYNQKFKGRFTISRDNAKNSLYLQMNSLRAEDTAVYYCARYYGDYDAMDYWGQGTLVTVSS
VL: DIQMTQSPSSLSASVGDRVTITCKASQDVHTAVAWYQQKPGKAPKLLIYWASTRHTGVPSRFSGSGSGTDFTLTISSLQPEDFATYYCQQHYTTPYTFGQGTKLEIKR
notes: Humanized 4D8 variant
B8 was tested, and the EC50 [8] was 0.0785 nM.

B9: 4D8-Vk1.0 x VH1.1 (antibody, human IgG1, kappa, V domains shown)
VH: B8 VH with A49G, F68A, R72V, N74Q, L79A
VL: B8 VL
notes: Humanized 4D8 variant
For B9, the EC50 [8] was 0.0705 nM.

B10: 4D8-Vk1.0 x VH1.2 (antibody, human IgG1, kappa, V domains shown)
VH: B8 VH with A49G
VL: B8 VL
notes: Humanized 4D8 variant
For B10, the EC50 [8] was 0.0422 nM.

B11: 4D8-Vk1.0 x VH1.3 (antibody, human IgG1, kappa, V domains shown)
VH: B8 VH with F68A
VL: B8 VL
notes: Humanized 4D8 variant
B11 was tested, and the EC50 [8] was 0.0556 nM.

B12: 4D8-Vk1.0 x VH1.4 (antibody, human IgG1, kappa, V domains shown)
VH: B8 VH with N74Q
VL: B8 VL
notes: Humanized 4D8 variant
Binder B12 has an EC50 [8] of 0.0426 nM.

B13: 4D8-Vk1.1 x VH1.0 (antibody, human IgG1, kappa, V domains shown)
VH: B8 VH
VL: B8 VL with F71Y
notes: Humanized 4D8 variant
With B13 the EC50 [8] was 0.0451 nM.

B14: 4D8-Vk1.1 x VH1.1 (antibody, human IgG1, kappa, V domains shown)
VH: B8 VH with A49G, F68A, R72V, N74Q, L79A
VL: B8 VL with F71Y
notes: Humanized 4D8 variant
With B14 the EC50 [8] was 0.0788 nM.

B15: 4D8-Vk1.1 x VH1.2 (antibody, human IgG1, kappa, V domains shown)
VH: B8 VH with A49G
VL: B8 VL with F71Y
notes: Humanized 4D8 variant
Binder B15 has an EC50 [8] of 0.0783 nM.

B16: 4D8-Vk1.1 x VH1.3 (antibody, human IgG1, kappa, V domains shown)
VH: B8 VH with F68A
VL: B8 VL with F71Y
notes: Humanized 4D8 variant
Binder B16 has an EC50 [8] of 0.0511 nM.

B17: hz4D8 (antibody, human IgG1, kappa, V domains shown)
VH: B8 VH with N74Q
VL: B8 VL with F71Y
notes: humanized, human IgG1 3M / kappa; also called 4D8-Vk1.1 x VH1.4; 4D8 Vk 1.1 x VH 1.4
Binder B17 has a Kd [2] of 0.502 nM, a Kd [3] of 0.502 nM and a koff [3] of 0.0029 s⁻¹. The kon [3] was 3.16e+06 M⁻¹ s⁻¹ and the EC50 [8] was 0.0716 nM.

B18: hz4F36 (antibody, human IgG4 S228P, kappa, V domains shown)
VH: EVQLVESGGGLVKPGGSLRLSCAASGFTFSNYAMSWVRQTPEKRLEWVATISRSGSYSYFPDSVQGRFTISRDNAKNSLYLQMNSLRAEDTAVYYCARLGGYDEGDAMDSWGQGTTVTVSS
VL: DIVMTQTPLSLSVTPGQPASISCKSSQSLLESDGKTYLNWYLQKPGQSPQLLIYLVSILDSGVPDRFSGSGSGTDFTLKISRVEAEDVGVYYCLQATHFPQTFGGGTKVEIKR
notes: also called Novo2021; Anti-TFPI-4F36
Work on B18 yielded a Kd [2] of 1.81 nM, a Kd [3] of 1.81 nM and a koff [3] of 0.0076 s⁻¹. For the same binder, the kon [3] was 4.2e+06 M⁻¹ s⁻¹.

B19: 7A4.D9 (antibody, V domains shown)
VH: EVQLQQSGPELVKPGASVKMSCKASGYTFTSYVMHWVKQKPGQGLEWIGYLNPYNDGTKYNEKFKGKASLISDKSSSTVYMELSSLTSEDSAVYYCATTLLYAMDYWGQGSSVTVSS
VL: DIVLTQSPASLAVSLGQRATISCRASKSVSTSGYTYMHWYQQKPGQPPKLLIYLASNLESGVPARFSGSGSGTDFTLNIHPVEEEDAAAYYCQHIRELPFTFGSGTKLEIKA
notes: Mouse hybridoma antibody
In the case of B19, the Kd [4] is reported as 3.55 nM, the koff [4] is reported as 0.0188 s⁻¹ and the kon [4] is reported as 5.3e+06 M⁻¹ s⁻¹. It also gave an EC50 [5] of 0.0887 nM.

B20: mu-hu 4D8 chimera (antibody, human IgG1, kappa)
heavy: EVLLQQSGPELVKPGASVKIPCKASGYTFTDYNLDWVKQSHGKSLEWIGDINPINGATLYNQKFKGKATLTVDQSSSTAYMELRSLTSEDTAVYYCSIYYGDYDAMDYWGQGASVTVSSASTKGPSVFPLAPSSKSTSGGTAALGCLVKDYFPEPVTVSWNSGALTSGVHTFPAVLQSSGLYSLSSVVTVPSSSLGTQTYICNVNHKPSNTKVDKKVEPKSCDKTHTCPPCPAPEAAGAPSVFLFPPKPKDTLMISRTPEVTCVVVDVSHEDPEVKFNWYVDGVEVHNAKTKPREEQYNSTYRVVSVLTVLHQDWLNGKEYKCKVSNKALPAPIEKTISKAKGQPREPQVYTLPPSREEMTKNQVSLTCLVKGFYPSDIAVEWESNGQPENNYKTTPPVLDSDGSFFLYSKLTVDKSRWQQGNVFSCSVMHEALHNHYTQKSLSLSPG
light: DIVMTQSHKFMSTSVGDRVSITCKASQDVHTAVAWYQQKPGQSPRLLIYWASTRHTGVPDRFTGCGSGTDYTLTISSVQAEDLALYYCQQHYTTPYTFGGGTKLEMKRTVAAPSVFIFPPSDEQLKSGTASVVCLLNNFYPREAKVQWKVDNALQSGNSQESVTEQDSKDSTYSLSSTLTLSKADYEKHKVYACEVTHQGLSSPVTKSFNRGEC
notes: Mouse variable regions on human IgG1 3M and human kappa constant regions; also called hu-mu 4D8 chimera; mouse-human chimeric antibody 4D8
Work on B20 yielded a Kd [9] of 0.63 nM, a koff [9] of 0.00126 s⁻¹ and a kon [9] of 2.01e+06 M⁻¹ s⁻¹. It also gave an EC50 [10] of 0.068 nM.
